B1: CPEB3 Ribozyme (parent)
chain: GGGGGCCACAGCAGAAGCGUUCACGUCGCGGCCCCUGUCAGAUUCUGGUGAAUCUGCGAAUUCUGCUGU

Variants of: B1
Test: self-cleavage, relative activity (ratio to wild type); higher = more cleavage; co-transcriptional
With GGGGGCCACAGCAGAAGCGUUCACGUCGCGGCCCCUGUCAGAUUCUGGUGAUUCUGCGAAGUCUGCUGU [A52U U61G] the self-cleavage was 0.741.
Work on GGGGGCCACAGCAGAAGCGUUCACGUCGCGGCCCCUGUCAGAUUCUGGUGUAUCUGAGAAUUCUGCUGU [A51U C57A] yielded a self-cleavage of 0.374.
GGGGGCCACAGCAGAAGCGUUCACGUCGCGGCCCCUGUCAGAUUCUGGUGACUCUGCGAAUUCAGCUGU [A52C U64A] gave a self-cleavage of 0.875.
For GGGGGCCACAGCAGAAGCGUUCACGUCGCGGCCCCUGUCAGAUUCUGGUGAUUCUGCGAAUUCUGGUGU [A52U C66G], the self-cleavage was 0.695.
Variant GGGGGCCACAGCAGAAGCGUUCACGUCGCGGCCCCUGUCAGAUUCUGGUGACUCUGCGAAUUCUGCUCU [A52C G68C] has a self-cleavage of 0.978.
Work on GGGGGCCACAGCAGAAGCGUUCACGUCGCGGCCCCUGUCAGAUUCUGGUGACUCUGCGAAUUCUGCUAU [A52C G68A] yielded a self-cleavage of 0.987.
GGGGGCCACAGCAGAAGCGUUCACGUCGCGGCCCCUGUCAGAUUCUGGUGAAACUGCGAAUUAUGCUGU [U53A C63A] gave a self-cleavage of 0.673.
For GGGGGCCACAGCAGAAGCGUUCACGUCGCGGCCCCUGUCAGAUUCUGGUGAAAUUGCGAAUUCUGCUGU [U53A C54U], the self-cleavage was 0.882.
GGGGGCCACAGCAGAAGCGUUCACGUCGCGGCCCCUGUCAGAUUCUGGUGAAAAUGCGAAUUCUGCUGU [U53A C54A] gave a self-cleavage of 0.907.
Work on GGGGGCCACAGCAGAAGCGUUCACGUCGCGGCCCCUGUCAGAUUCUGGUGACUCUGCGAAUUCUGCGGU [A52C U67G] yielded a self-cleavage of 1.
For GGGGGCCACAGCAGAAGCGUUCACGUCGCGGCCCCUGUCAGAUUCUGGUGACUCUGCGAAUUCUGCCGU [A52C U67C], the self-cleavage was 1.
GGGGGCCACAGCAGAAGCGUUCACGUCGCGGCCCCUGUCAGAUUCUGGUGAUUCGGCGAAUUCUGCUGU [A52U U55G] gave a self-cleavage of 0.56.
Work on GGGGGCCACAGCAGAAGCGUUCACGUCGCGGCCCCUGUCAGAUUCUGGUGAUUCAGCGAAUUCUGCUGU [A52U U55A] yielded a self-cleavage of 0.7.
With GGGGGCCACAGCAGAAGCGUUCACGUCGCGGCCCCUGUCAGAUUCUGGUGACGCUGCGAAUUCUGCUGU [A52C U53G] the self-cleavage was 0.788.
GGGGGCCACAGCAGAAGCGUUCACGUCGCGGCCCCUGUCAGAUUCUGGUGAUUCUGCGAAUUCUCCUGU [A52U G65C] showed a self-cleavage of 0.549.
Work on GGGGGCCACAGCAGAAGCGUUCACGUCGCGGCCCCUGUCAGAUUCUGGUGAUUCUGCGAAUUCUUCUGU [A52U G65U] yielded a self-cleavage of 0.664.
For GGGGGCCACAGCAGAAGCGUUCACGUCGCGGCCCCUGUCAGAUUCUGGUGAGUCUGCGAUUUCUGCUGU [A52G A60U], the self-cleavage was 0.506.
For GGGGGCCACAGCAGAAGCGUUCACGUCGCGGCCCCUGUCAGAUUCUGGUGUAUCUGCGAAUUAUGCUGU [A51U C63A], the self-cleavage was 0.797.
Work on GGGGGCCACAGCAGAAGCGUUCACGUCGCGGCCCCUGUCAGAUUCUGGUGAGUCUGCGAAUUCUCCUGU [A52G G65C] yielded a self-cleavage of 0.843.
GGGGGCCACAGCAGAAGCGUUCACGUCGCGGCCCCUGUCAGAUUCUGGUGAGUCUGCGAAUUCUUCUGU [A52G G65U] showed a self-cleavage of 0.894.
For GGGGGCCACAGCAGAAGCGUUCACGUCGCGGCCCCUGUCAGAUUCUGGUGAUUCUGCAAAUUCUGCUGU [A52U G58A], the self-cleavage was 0.939.
Variant GGGGGCCACAGCAGAAGCGUUCACGUCGCGGCCCCUGUCAGAUUCUGGUGAGUCUGCGAAUUCUGCUUU [A52G G68U] has a self-cleavage of 0.988.
GGGGGCCACAGCAGAAGCGUUCACGUCGCGGCCCCUGUCAGAUUCUGGUGAGUCUGCGAAUUCUGCCGU [A52G U67C] showed a self-cleavage of 0.944.
For GGGGGCCACAGCAGAAGCGUUCACGUCGCGGCCCCUGUCAGAUUCUGGUGAGUCUGCGAAUUCUGCGGU [A52G U67G], the self-cleavage was 1.02.
Work on GGGGGCCACAGCAGAAGCGUUCACGUCGCGGCCCCUGUCAGAUUCUGGUGUAUCGGCGAAUUCUGCUGU [A51U U55G] yielded a self-cleavage of 0.662.
For GGGGGCCACAGCAGAAGCGUUCACGUCGCGGCCCCUGUCAGAUUCUGGUGAAACUGCGAAGUCUGCUGU [U53A U61G], the self-cleavage was 0.581.
In the case of GGGGGCCACAGCAGAAGCGUUCACGUCGCGGCCCCUGUCAGAUUCUGGUGAAACUGCGACUUCUGCUGU [U53A A60C], the self-cleavage is reported as 0.324.
GGGGGCCACAGCAGAAGCGUUCACGUCGCGGCCCCUGUCAGAUUCUGGUGAAACUGCGAUUUCUGCUGU [U53A A60U] gave a self-cleavage of 0.35.
With GGGGGCCACAGCAGAAGCGUUCACGUCGCGGCCCCUGUCAGAUUCUGGUGAAACUGCGAGUUCUGCUGU [U53A A60G] the self-cleavage was 0.777.
With GGGGGCCACAGCAGAAGCGUUCACGUCGCGGCCCCUGUCAGAUUCUGGUGUAUCUGCGAAUUCUCCUGU [A51U G65C] the self-cleavage was 0.674.
Variant GGGGGCCACAGCAGAAGCGUUCACGUCGCGGCCCCUGUCAGAUUCUGGUGACUCUGCAAAUUCUGCUGU [A52C G58A] has a self-cleavage of 0.887.
In the case of GGGGGCCACAGCAGAAGCGUUCACGUCGCGGCCCCUGUCAGAUUCUGGUGACUCUGCCAAUUCUGCUGU [A52C G58C], the self-cleavage is reported as 0.986.
Work on GGGGGCCACAGCAGAAGCGUUCACGUCGCGGCCCCUGUCAGAUUCUGGUGAGGCUGCGAAUUCUGCUGU [A52G U53G] yielded a self-cleavage of 0.72.
GGGGGCCACAGCAGAAGCGUUCACGUCGCGGCCCCUGUCAGAUUCUGGUGAGCCUGCGAAUUCUGCUGU [A52G U53C] showed a self-cleavage of 0.892.
GGGGGCCACAGCAGAAGCGUUCACGUCGCGGCCCCUGUCAGAUUCUGGUGAUUCUGCGAAUUCUGCUGA [A52U U69A] showed a self-cleavage of 1.03.
For GGGGGCCACAGCAGAAGCGUUCACGUCGCGGCCCCUGUCAGAUUCUGGUGUAACUGCGAAUUCUGCUGU [A51U U53A], the self-cleavage was 0.918.
GGGGGCCACAGCAGAAGCGUUCACGUCGCGGCCCCUGUCAGAUUCUGGUGUAUCUGCAAAUUCUGCUGU [A51U G58A] showed a self-cleavage of 0.941.
GGGGGCCACAGCAGAAGCGUUCACGUCGCGGCCCCUGUCAGAUUCUGGUGUAUCUGCCAAUUCUGCUGU [A51U G58C] gave a self-cleavage of 0.975.
Work on GGGGGCCACAGCAGAAGCGUUCACGUCGCGGCCCCUGUCAGAUUCUGGUGAAACUGCGAAUUCUGCCGU [U53A U67C] yielded a self-cleavage of 0.975.

From the RNAGym collection of RNA variant scans (doi:10.7554/elife.80360)
